Where no end group is shown, it is not given here.
T1: human GRF receptor (human, UniProt Q02643 23-423)
T1 sequence (looked up): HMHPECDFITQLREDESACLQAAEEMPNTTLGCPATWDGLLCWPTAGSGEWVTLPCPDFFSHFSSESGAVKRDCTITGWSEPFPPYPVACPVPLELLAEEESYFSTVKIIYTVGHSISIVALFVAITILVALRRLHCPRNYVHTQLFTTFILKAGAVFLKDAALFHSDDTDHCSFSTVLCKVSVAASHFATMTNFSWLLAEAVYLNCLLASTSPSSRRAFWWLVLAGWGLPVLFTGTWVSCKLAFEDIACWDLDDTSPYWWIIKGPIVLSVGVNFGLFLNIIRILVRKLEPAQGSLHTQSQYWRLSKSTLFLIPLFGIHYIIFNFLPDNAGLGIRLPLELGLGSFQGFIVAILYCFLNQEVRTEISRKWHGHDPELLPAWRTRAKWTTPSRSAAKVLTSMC


target: T1, human GRF receptor; experiment: cell-based or functional assay

Binder | EC50 as assessed by alkaline phosphatase (AP) induction [nM]
YXDAIFTDSYRKVLAQLKARQDILSX (HELM PEPTIDE1{Y.[dA].D.A.I.F.T.D.S.Y.R.K.V.L.A.Q.L.K.A.R.Q.D.I.L.S.[dR].[am]}$$$$V2.0; N-terminus assumed; SMILES CC[C@H](C)[C@H](NC(=O)[C@H](C)NC(=O)[C@H](CC(=O)O)NC(=O)[C@@H](C)NC(=O)[C@@H](N)Cc1ccc(O)cc1)C(=O)N[C@@H](Cc1ccccc1)C(=O)N[C@H](C(=O)N[C@@H](CC(=O)O)C(=O)N[C@@H](CO)C(=O)N[C@@H](Cc1ccc(O)cc1)C(=O)N[C@@H](CCCNC(=N)N)C(=O)N[C@@H](CCCCN)C(=O)N[C@H](C(=O)N[C@@H](CC(C)C)C(=O)N[C@@H](C)C(=O)N[C@@H](CCC(N)=O)C(=O)N[C@@H](CC(C)C)C(=O)N[C@@H](CCCCN)C(=O)N[C@@H](C)C(=O)N[C@@H](CCCNC(=N)N)C(=O)N[C@@H](CCC(N)=O)C(=O)N[C@@H](CC(=O)O)C(=O)N[C@H](C(=O)N[C@@H](CC(C)C)C(=O)N[C@@H](CO)C(=O)N[C@H](CCCNC(=N)N)C(N)=O)[C@@H](C)CC)C(C)C)[C@@H](C)O) [Y-a-DAIFTDSYRKVLAQLKARQDILS-r-NH2 (SEQ ID NO: 21)] | 2.47
YXDAIFTDSYRKVLAQLKARQDILARAARAARX (HELM PEPTIDE1{Y.[dA].D.A.I.F.T.D.S.Y.R.K.V.L.A.Q.L.K.A.R.Q.D.I.L.A.R.A.A.R.A.A.R.[O=C([C@H](CCO)N[*:1])[*:2]].[am]}$$$$V2.0; N-terminus assumed; SMILES CC[C@H](C)[C@H](NC(=O)[C@H](C)NC(=O)[C@H](CC(=O)O)NC(=O)[C@@H](C)NC(=O)[C@@H](N)Cc1ccc(O)cc1)C(=O)N[C@@H](Cc1ccccc1)C(=O)N[C@H](C(=O)N[C@@H](CC(=O)O)C(=O)N[C@@H](CO)C(=O)N[C@@H](Cc1ccc(O)cc1)C(=O)N[C@@H](CCCNC(=N)N)C(=O)N[C@@H](CCCCN)C(=O)N[C@H](C(=O)N[C@@H](CC(C)C)C(=O)N[C@@H](C)C(=O)N[C@@H](CCC(N)=O)C(=O)N[C@@H](CC(C)C)C(=O)N[C@@H](CCCCN)C(=O)N[C@@H](C)C(=O)N[C@@H](CCCNC(=N)N)C(=O)N[C@@H](CCC(N)=O)C(=O)N[C@@H](CC(=O)O)C(=O)N[C@H](C(=O)N[C@@H](CC(C)C)C(=O)N[C@@H](C)C(=O)N[C@@H](CCCNC(=N)N)C(=O)N[C@@H](C)C(=O)N[C@@H](C)C(=O)N[C@@H](CCCNC(=N)N)C(=O)N[C@@H](C)C(=O)N[C@@H](C)C(=O)N[C@@H](CCCNC(=N)N)C(=O)N[C@@H](CCO)C(N)=O)[C@@H](C)CC)C(C)C)[C@@H](C)O) [Y-a-DAIFTDSYRKVLAQLKARQDILARAARAAR-HoSer-NH2 (SEQ ID NO: 37)] | 0.2
YLDAIFTDSYRKVLAQLKARQDILARAARAAR-NH2 [YLDAIFTDSYRKVLAQLKARQDILARAARAAR-NH2 (SEQ ID NO: 35)] | 2.52
YADAIFTDSYRKVLAQLSARQDILSX (HELM PEPTIDE1{[CC/C=C/CC(=O)[*:2]].Y.A.D.A.I.F.T.D.S.Y.R.K.V.L.A.Q.L.S.A.R.Q.D.I.L.S.[dR].[am]}$$$$V2.0; SMILES CC/C=C/CC(=O)N[C@@H](Cc1ccc(O)cc1)C(=O)N[C@@H](C)C(=O)N[C@@H](CC(=O)O)C(=O)N[C@@H](C)C(=O)N[C@H](C(=O)N[C@@H](Cc1ccccc1)C(=O)N[C@H](C(=O)N[C@@H](CC(=O)O)C(=O)N[C@@H](CO)C(=O)N[C@@H](Cc1ccc(O)cc1)C(=O)N[C@@H](CCCNC(=N)N)C(=O)N[C@@H](CCCCN)C(=O)N[C@H](C(=O)N[C@@H](CC(C)C)C(=O)N[C@@H](C)C(=O)N[C@@H](CCC(N)=O)C(=O)N[C@@H](CC(C)C)C(=O)N[C@@H](CO)C(=O)N[C@@H](C)C(=O)N[C@@H](CCCNC(=N)N)C(=O)N[C@@H](CCC(N)=O)C(=O)N[C@@H](CC(=O)O)C(=O)N[C@H](C(=O)N[C@@H](CC(C)C)C(=O)N[C@@H](CO)C(=O)N[C@H](CCCNC(=N)N)C(N)=O)[C@@H](C)CC)C(C)C)[C@@H](C)O)[C@@H](C)CC) [Trans-3-hexenoyl-YADAIFTDSYRKVLAQLSARQDILS-r-NH2 (SEQ ID NO: 46)] | 15.1
YGDAIFTDSYRKVLAQLKARQDILARAARAAR-NH2 [YGDAIFTDSYRKVLAQLKARQDILARAARAAR-NH2 (SEQ ID NO: 34)] | 0.2

Next, values leading:

EC50 as assessed by alkaline phosphatase (AP) induction [nM] | Binder
0.98 | YADAIFTDSYRKVLAQLKARQDILAR (HELM PEPTIDE1{[CC/C=C/CC(=O)[*:2]].Y.A.D.A.I.F.T.D.S.Y.R.K.V.L.A.Q.L.K.A.R.Q.D.I.L.A.R.[am]}$$$$V2.0; SMILES CC/C=C/CC(=O)N[C@@H](Cc1ccc(O)cc1)C(=O)N[C@@H](C)C(=O)N[C@@H](CC(=O)O)C(=O)N[C@@H](C)C(=O)N[C@H](C(=O)N[C@@H](Cc1ccccc1)C(=O)N[C@H](C(=O)N[C@@H](CC(=O)O)C(=O)N[C@@H](CO)C(=O)N[C@@H](Cc1ccc(O)cc1)C(=O)N[C@@H](CCCNC(=N)N)C(=O)N[C@@H](CCCCN)C(=O)N[C@H](C(=O)N[C@@H](CC(C)C)C(=O)N[C@@H](C)C(=O)N[C@@H](CCC(N)=O)C(=O)N[C@@H](CC(C)C)C(=O)N[C@@H](CCCCN)C(=O)N[C@@H](C)C(=O)N[C@@H](CCCNC(=N)N)C(=O)N[C@@H](CCC(N)=O)C(=O)N[C@@H](CC(=O)O)C(=O)N[C@H](C(=O)N[C@@H](CC(C)C)C(=O)N[C@@H](C)C(=O)N[C@@H](CCCNC(=N)N)C(N)=O)[C@@H](C)CC)C(C)C)[C@@H](C)O)[C@@H](C)CC) [Trans-3-hexenoyl-YADAIFTDSYRKVLAQLKARQDILAR-NH2 (SEQ ID NO: 20)]
9.73 | YADAIFTDSYRKVLAQLSARQDIMSR (HELM PEPTIDE1{[CC/C=C/CC(=O)[*:2]].Y.A.D.A.I.F.T.D.S.Y.R.K.V.L.A.Q.L.S.A.R.Q.D.I.M.S.R.[am]}$$$$V2.0; SMILES CC/C=C/CC(=O)N[C@@H](Cc1ccc(O)cc1)C(=O)N[C@@H](C)C(=O)N[C@@H](CC(=O)O)C(=O)N[C@@H](C)C(=O)N[C@H](C(=O)N[C@@H](Cc1ccccc1)C(=O)N[C@H](C(=O)N[C@@H](CC(=O)O)C(=O)N[C@@H](CO)C(=O)N[C@@H](Cc1ccc(O)cc1)C(=O)N[C@@H](CCCNC(=N)N)C(=O)N[C@@H](CCCCN)C(=O)N[C@H](C(=O)N[C@@H](CC(C)C)C(=O)N[C@@H](C)C(=O)N[C@@H](CCC(N)=O)C(=O)N[C@@H](CC(C)C)C(=O)N[C@@H](CO)C(=O)N[C@@H](C)C(=O)N[C@@H](CCCNC(=N)N)C(=O)N[C@@H](CCC(N)=O)C(=O)N[C@@H](CC(=O)O)C(=O)N[C@H](C(=O)N[C@@H](CCSC)C(=O)N[C@@H](CO)C(=O)N[C@@H](CCCNC(=N)N)C(N)=O)[C@@H](C)CC)C(C)C)[C@@H](C)O)[C@@H](C)CC) [Trans-3-hexenoyl-YADAIFTDSYRKVLAQLSARQDIMSR-NH2 (SEQ ID NO: 44)]
7.55 | YADAIFTDSYRKVLAQLSARQDILAR (HELM PEPTIDE1{[CC/C=C/CC(=O)[*:2]].Y.A.D.A.I.F.T.D.S.Y.R.K.V.L.A.Q.L.S.A.R.Q.D.I.L.A.R.[am]}$$$$V2.0; SMILES CC/C=C/CC(=O)N[C@@H](Cc1ccc(O)cc1)C(=O)N[C@@H](C)C(=O)N[C@@H](CC(=O)O)C(=O)N[C@@H](C)C(=O)N[C@H](C(=O)N[C@@H](Cc1ccccc1)C(=O)N[C@H](C(=O)N[C@@H](CC(=O)O)C(=O)N[C@@H](CO)C(=O)N[C@@H](Cc1ccc(O)cc1)C(=O)N[C@@H](CCCNC(=N)N)C(=O)N[C@@H](CCCCN)C(=O)N[C@H](C(=O)N[C@@H](CC(C)C)C(=O)N[C@@H](C)C(=O)N[C@@H](CCC(N)=O)C(=O)N[C@@H](CC(C)C)C(=O)N[C@@H](CO)C(=O)N[C@@H](C)C(=O)N[C@@H](CCCNC(=N)N)C(=O)N[C@@H](CCC(N)=O)C(=O)N[C@@H](CC(=O)O)C(=O)N[C@H](C(=O)N[C@@H](CC(C)C)C(=O)N[C@@H](C)C(=O)N[C@@H](CCCNC(=N)N)C(N)=O)[C@@H](C)CC)C(C)C)[C@@H](C)O)[C@@H](C)CC) [Trans-3-hexenoyl-YADAIFTDSYRKVLAQLSARQDILAR-NH2 (SEQ ID NO: 45)]
0.2 | YGDAIFTDSYRKVLAQLKARQDILARAARAARX (HELM PEPTIDE1{Y.G.D.A.I.F.T.D.S.Y.R.K.V.L.A.Q.L.K.A.R.Q.D.I.L.A.R.A.A.R.A.A.R.[O=C([C@H](CCO)N[*:1])[*:2]].[am]}$$$$V2.0; N-terminus assumed; SMILES CC[C@H](C)[C@H](NC(=O)[C@H](C)NC(=O)[C@H](CC(=O)O)NC(=O)CNC(=O)[C@@H](N)Cc1ccc(O)cc1)C(=O)N[C@@H](Cc1ccccc1)C(=O)N[C@H](C(=O)N[C@@H](CC(=O)O)C(=O)N[C@@H](CO)C(=O)N[C@@H](Cc1ccc(O)cc1)C(=O)N[C@@H](CCCNC(=N)N)C(=O)N[C@@H](CCCCN)C(=O)N[C@H](C(=O)N[C@@H](CC(C)C)C(=O)N[C@@H](C)C(=O)N[C@@H](CCC(N)=O)C(=O)N[C@@H](CC(C)C)C(=O)N[C@@H](CCCCN)C(=O)N[C@@H](C)C(=O)N[C@@H](CCCNC(=N)N)C(=O)N[C@@H](CCC(N)=O)C(=O)N[C@@H](CC(=O)O)C(=O)N[C@H](C(=O)N[C@@H](CC(C)C)C(=O)N[C@@H](C)C(=O)N[C@@H](CCCNC(=N)N)C(=O)N[C@@H](C)C(=O)N[C@@H](C)C(=O)N[C@@H](CCCNC(=N)N)C(=O)N[C@@H](C)C(=O)N[C@@H](C)C(=O)N[C@@H](CCCNC(=N)N)C(=O)N[C@@H](CCO)C(N)=O)[C@@H](C)CC)C(C)C)[C@@H](C)O) [YGDAIFTDSYRKVLAQLKARQDILARAARAAR-HoSer-NH2 (SEQ ID NO: 36)]
